# Paper PMC5389665
# Target: TerL P74-26 nuclease domain (residues 256–485) (Thermus phage P74-26)
# Assay: SEC
substance,measurement,value
TerL P74-26 nuclease domain (residues 256–485) (domain or fragment),stoichiometry N,2
